Measured values taken from IntAct's records for PubMed 25543256.

B1: Diphthamide biosynthesis protein 3 (Saccharomyces cerevisiae), Q3E840 (parent)
chain: MSTYDEIEIEDMTFEPENQMFTYPCPCGDRFQIYLDDMFEGEKVAVCPSCSLMIDVVFDKEDLAEYYEEAGIHPPEPIAAAA
partner: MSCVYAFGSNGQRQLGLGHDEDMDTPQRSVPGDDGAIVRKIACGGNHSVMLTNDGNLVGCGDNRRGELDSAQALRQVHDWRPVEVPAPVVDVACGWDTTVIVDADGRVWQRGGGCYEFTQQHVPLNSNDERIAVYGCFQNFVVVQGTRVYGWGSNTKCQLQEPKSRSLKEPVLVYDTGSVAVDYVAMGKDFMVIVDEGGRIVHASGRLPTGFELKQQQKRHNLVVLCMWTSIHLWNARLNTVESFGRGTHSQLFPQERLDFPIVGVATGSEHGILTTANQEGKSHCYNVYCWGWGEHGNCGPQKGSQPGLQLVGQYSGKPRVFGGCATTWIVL
B2: Diphthamide biosynthesis protein 3 (Saccharomyces cerevisiae), Q3E840 (parent)
chain: B1 chain
partner: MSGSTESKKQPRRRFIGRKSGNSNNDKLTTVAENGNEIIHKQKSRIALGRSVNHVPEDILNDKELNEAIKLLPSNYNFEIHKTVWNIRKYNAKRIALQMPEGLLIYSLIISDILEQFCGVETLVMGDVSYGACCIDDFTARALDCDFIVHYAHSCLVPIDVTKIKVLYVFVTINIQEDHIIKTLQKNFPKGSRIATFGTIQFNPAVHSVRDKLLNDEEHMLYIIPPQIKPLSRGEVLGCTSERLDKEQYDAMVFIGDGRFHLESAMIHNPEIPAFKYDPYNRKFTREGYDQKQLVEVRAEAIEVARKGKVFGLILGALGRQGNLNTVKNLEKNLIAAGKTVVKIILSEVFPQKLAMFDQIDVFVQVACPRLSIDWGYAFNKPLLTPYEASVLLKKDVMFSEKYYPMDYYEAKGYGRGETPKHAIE
B3: Protein KTI13 (Saccharomyces cerevisiae), P31386 (parent)
chain: B1 partner
partner: B1 chain
B4: Diphthamide biosynthesis protein 3 (Saccharomyces cerevisiae), Q3E840 (parent)
chain: B1 chain
partner: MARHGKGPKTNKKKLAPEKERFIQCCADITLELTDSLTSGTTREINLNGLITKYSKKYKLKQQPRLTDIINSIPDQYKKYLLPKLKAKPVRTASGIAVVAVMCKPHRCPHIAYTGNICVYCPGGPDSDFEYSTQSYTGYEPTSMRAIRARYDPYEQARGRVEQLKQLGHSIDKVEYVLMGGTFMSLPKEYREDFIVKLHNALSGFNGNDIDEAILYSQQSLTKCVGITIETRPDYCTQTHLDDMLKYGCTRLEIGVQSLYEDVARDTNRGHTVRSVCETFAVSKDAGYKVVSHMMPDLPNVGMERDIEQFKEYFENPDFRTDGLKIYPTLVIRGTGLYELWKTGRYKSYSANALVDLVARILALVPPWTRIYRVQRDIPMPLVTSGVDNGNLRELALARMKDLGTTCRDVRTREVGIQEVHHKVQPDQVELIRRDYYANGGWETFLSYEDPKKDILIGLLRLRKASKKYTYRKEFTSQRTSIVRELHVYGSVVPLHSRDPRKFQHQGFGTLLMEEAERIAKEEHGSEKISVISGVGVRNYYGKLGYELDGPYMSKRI

Variants of: B1
Details: with ats1_yeast ATS1, P31386
Y4A was tested, and the “effect of a mutation on the interaction” value was “disrupting interaction strength”.
For D5A, the “effect of a mutation on the interaction” value was “disrupting interaction strength”.
For E8A, the “effect of a mutation on the interaction” value was “decreasing interaction strength”.

Variants of: B1
Details: with ats1_yeast ATS1, P31386
Remark: another data set of the same source
With Y4A the “effect of a mutation on the interaction” value was “decreasing interaction strength”.
With Y4A;D5A the “effect of a mutation on the interaction” value was “decreasing interaction strength”.
For I7A;I9A, the “effect of a mutation on the interaction” value was “decreasing interaction strength”.

Variants of: B1
Details: with ats1_yeast ATS1, P31386
Remark: another data set of the same source
D5A was tested, and the “effect of a mutation on the interaction” value was “decreasing interaction strength”.
With E6A;E8A the “effect of a mutation on the interaction” value was “decreasing interaction strength”.

Variants of: B2
Details: with dph1_yeast DPH1, P40487
C27S was tested, and the “effect of a mutation on the interaction” value was “disrupting interaction strength”.
With C25S the “effect of a mutation on the interaction” value was “disrupting interaction strength”.
For C47S, the “effect of a mutation on the interaction” value was “disrupting interaction strength”.
C50S was tested, and the “effect of a mutation on the interaction” value was “disrupting interaction strength”.

Variants of: B3
Details: with dph3_yeast KTI11, Q3E840
With E296A the “effect of a mutation on the interaction” value was “increasing interaction strength”.
With W229A the “effect of a mutation on the interaction” value was “decreasing interaction strength”.
In the case of H297A, the “effect of a mutation on the interaction” value is reported as “increasing interaction strength”.

Variants of: B3
Details: with dph3_yeast KTI11, Q3E840
Remark: another data set of the same source
With W229A the “effect of a mutation on the interaction” value was “disrupting interaction strength”.
For W229C, the “effect of a mutation on the interaction” value was “disrupting interaction strength”.
W294A was tested, and the “effect of a mutation on the interaction” value was “decreasing interaction strength”.

Variants of: B3
Details: with dph3_yeast KTI11, Q3E840
Remark: another data set of the same source
For W229C, the “effect of a mutation on the interaction” value was “decreasing interaction strength”.

Variants of: B4
Details: with elp3_yeast ELP3, Q02908
For C50S, the “effect of a mutation on the interaction” value was “disrupting interaction strength”.
